Data set [1] deals with MBP-ZnF-Cst (Mus musculus castaneus (CAST/EiJ)) (UniProt Q96EQ9). In words: EMSA. As to conditions: 10 mM Tris pH 7.5, 50 mM KCl, 50 uM ZnCl2, 0.05% NP-40 (1x TKZN), usually 50 ng/ul polydIdC, 60 min at RT, 5% native PAGE in 0.5x TBE.
In data set [2] the target is His-Halo-PRDM9^Cst ZnF1-11 (Mus musculus castaneus (CAST/EiJ strain)). In words: native gel or EMSA; multimer assay II as a2, with the semipure (ion-exchange) Halo-tagged construct; the shifted band was shown by MALDI-TOF mass spectrometry to hold mainly PRDM9 peptides. For orientation: A gel shift assay detects complexes by their altered migration in electrophoresis.
The target of data set [3] is His-MBP-eYFP-PRDM9^Cst ZnF (Mus musculus castaneus (CAST/EiJ strain)). In words: native gel or EMSA; multimer assay II: construct bound to a 75-bp DNA (Hlx1 for PRDM9^Cst, Pbx1 for PRDM9^Dom2), native gel; MW of the lower shift read against a ladder of free DNA (75-740 bp) and divided by the monomer's MW; four replicates; crude bacterial lysates or in vitro expressed protein.

In data set [4] the target is His-MBP-eYFP-PRDM9^Dom2 ZnF (Mus musculus domesticus (C57BL/6J strain)). Described as above.
For data set [5], the target named is His-PRDM9^Cst ZnF1-11 (Mus musculus castaneus (CAST/EiJ strain)). The experiment in a line: native gel or EMSA; multimer assay I: construct bound to single-Hlx1 and tandem-Hlx1 DNA fragments of rising length, native 5% polyacrylamide gel; MW of the second complex (supershift) read from the regression of the lower shifts and divided by the monomer's MW; crude bacterial lysates or in vitro expressed protein.

Data set [6] concerns the target His-PRDM9^Cst ZnF2-8 (Mus musculus castaneus (CAST/EiJ strain)). The data set is described as above.
Data set [7] has the same target. In words: native gel or EMSA; multimer assay II: construct bound to a 75-bp DNA (Hlx1 for PRDM9^Cst, Pbx1 for PRDM9^Dom2), native gel; MW of the lower shift read against a ladder of free DNA (75-740 bp) and divided by the monomer's MW; four replicates; crude bacterial lysates or in vitro expressed protein.
The target in data set [8] is His-PRDM9^Cst ZnF2–6 (Mus musculus castaneus (CAST/EiJ strain)). In words: native gel or EMSA; multimer assay I: construct bound to single-Hlx1 and tandem-Hlx1 DNA fragments of rising length, native 5% polyacrylamide gel; MW of the second complex (supershift) read from the regression of the lower shifts and divided by the monomer's MW; crude bacterial lysates or in vitro expressed protein.

The target is the same in data set [9]. The experiment in a line: native gel or EMSA; multimer assay II: construct bound to a 75-bp DNA (Hlx1 for PRDM9^Cst, Pbx1 for PRDM9^Dom2), native gel; MW of the lower shift read against a ladder of free DNA (75-740 bp) and divided by the monomer's MW; four replicates; crude bacterial lysates or in vitro expressed protein.
Data set [10] concerns the target His-PRDM9^Cst ZnF (Mus musculus castaneus (CAST/EiJ strain)). The experiment in a line: native gel or EMSA; multimer assay I: construct bound to single-Hlx1 and tandem-Hlx1 DNA fragments of rising length, native 5% polyacrylamide gel; MW of the second complex (supershift) read from the regression of the lower shifts and divided by the monomer's MW; crude bacterial lysates or in vitro expressed protein.

Data set [11] has as its target His-eYFP-PRDM9^Cst (full-length PRDM9^Cst with KRAB, SSXRD, PR/SET and ZnF domains) (Mus musculus castaneus (CAST/EiJ strain)). The experiment in a line: native gel or EMSA; multimer assay II: construct bound to a 75-bp DNA (Hlx1 for PRDM9^Cst, Pbx1 for PRDM9^Dom2), native gel; MW of the lower shift read against a ladder of free DNA (75-740 bp) and divided by the monomer's MW; four replicates; crude bacterial lysates or in vitro expressed protein.

Data set [12] concerns the target His-eYFP-PRDM9^Cst ZnF1-11 (Mus musculus castaneus (CAST/EiJ strain)). In words: native gel or EMSA; multimer assay I: construct bound to single-Hlx1 and tandem-Hlx1 DNA fragments of rising length, native 5% polyacrylamide gel; MW of the second complex (supershift) read from the regression of the lower shifts and divided by the monomer's MW; crude bacterial lysates or in vitro expressed protein.

For data set [13] the target is unchanged. The experiment in a line: native gel or EMSA; multimer assay II: construct bound to a 75-bp DNA (Hlx1 for PRDM9^Cst, Pbx1 for PRDM9^Dom2), native gel; MW of the lower shift read against a ladder of free DNA (75-740 bp) and divided by the monomer's MW; four replicates; crude bacterial lysates or in vitro expressed protein.
For data set [14], the target named is His-eYFP-PRDM9^Cst ZnF2-11 (Mus musculus castaneus (CAST/EiJ strain)). The experiment in a line: native gel or EMSA; multimer assay I: construct bound to single-Hlx1 and tandem-Hlx1 DNA fragments of rising length, native 5% polyacrylamide gel; MW of the second complex (supershift) read from the regression of the lower shifts and divided by the monomer's MW; crude bacterial lysates or in vitro expressed protein.

Data set [15] shares this target. The experiment in a line: native gel or EMSA; multimer assay II: construct bound to a 75-bp DNA (Hlx1 for PRDM9^Cst, Pbx1 for PRDM9^Dom2), native gel; MW of the lower shift read against a ladder of free DNA (75-740 bp) and divided by the monomer's MW; four replicates; crude bacterial lysates or in vitro expressed protein.
For data set [16], the target named is His-eYFP-PRDM9^Cst ZnF (Mus musculus castaneus (CAST/EiJ strain)). In words: native gel or EMSA; multimer assay I: construct bound to single-Hlx1 and tandem-Hlx1 DNA fragments of rising length, native 5% polyacrylamide gel; MW of the second complex (supershift) read from the regression of the lower shifts and divided by the monomer's MW; crude bacterial lysates or in vitro expressed protein.

Usually Kd stands for the equilibrium constant for the complex coming apart. Turning to “AACCCTGAGCTGCCTAAAGGTCAAATAGTGTGCAGACTTGGACCCTGCCCTTTCTTTAATAGTGTGCAGACTTGGACCCTGCCCTTTCTTTCTGCTGTGAATACCAGAGGCACA (double strand) [tandem-Hlx1 114 bp]”, the dissociation constant Kd in data set [1] (sum of lower shift and supershift, two complexes) was found to be 35 nM.

Substance “GTGGGAGGAGATGGTGGGTGAATAGTGTGCAGACTTGGACCCTGCCCTTTCTTTACGCATTCCACTAACCATGGG (double strand) [single-Hlx1 75 bp]” showed a dissociation constant (Kd) in data set [1] (60 min incubation) of 48 nM.

A word on the stoichiometry N: it is a count of units in the complex or per binding partner. “His-Halo-PRDM9^Cst ZnF1-11 (domain or fragment)”: the stoichiometry N in [2] was found to be 3.

Consider “His-MBP-eYFP-PRDM9^Cst ZnF (domain or fragment)”, for which the stoichiometry N in [3] was determined as 3.

Take “His-MBP-eYFP-PRDM9^Dom2 ZnF (domain or fragment)”: in data set [4], the stoichiometry N turned out to be 3.

On to “His-PRDM9^Cst ZnF1-11 (domain or fragment)”, for which the stoichiometry N in data set [5] worked out at 3.

With “His-PRDM9^Cst ZnF2-8 (domain or fragment)”, the stoichiometry N in data set [6] worked out at 2.7; in [7], 2.5.

Take “His-PRDM9^Cst ZnF2–6 (domain or fragment)”: the stoichiometry N in [8] and in data set [9] was 2.9 each time.

Take His-PRDM9^Cst ZnF (domain or fragment): the stoichiometry N in data set [10] was 3.

In the case of “His-eYFP-PRDM9^Cst (full-length PRDM9^Cst with KRAB, SSXRD, PR/SET and ZnF domains) (natural protein)”, in [11], the stoichiometry N stood at 3.

Turning to “His-eYFP-PRDM9^Cst ZnF1-11 (domain or fragment)”, the stoichiometry N in data set [12] is 3.8; in data set [13], 3.5.

As to “His-eYFP-PRDM9^Cst ZnF2-11 (domain or fragment)”, the stoichiometry N worked out at 2.7 in [14] and 3 in data set [15].

For the substance “His-eYFP-PRDM9^Cst ZnF (domain or fragment)”, the stoichiometry N in data set [16] was found to be 3.

Values taken from publication PMC6643046.
